Measured values from US20250319180A1.

Target: human LY6H expressed on 293T cells (plasmid BBP491, M1-P140 plus Myc-DDK) (human) (UniProt O94772)
Assay: on-cell affinity by flow cytometry: unconjugated 12G7 (0.05-100 nM) competes with 1 nM PE-conjugated 12G7 on 293T cells expressing human LY6H; table row 293T-huLY6H

Kd: 9.9 nM
B1: 12G7 (antibody, V domains shown)
VH: QVQLQQWGAGLLKPSETLSLTCAVYGGSFSGYYWSWIRQPPGKGLEWIGEINHSGSTYYNPSLKSRVTMSVDTSKNQFSLKLSSVTAADTAVYYCAKRWELGAFDIWGQGTMVTVSS
VL: DIQMTQSPSSLSASVGDRVTITCRASQGISNYLAWYQQKPGKVPKLLIYAASTLQSGVPSRFSGSGSGTDFTLTISSLQPEDVATYYCQKYNSAPRTFGQGTKLEIK
